In patent US20240270860A1:

Columns and labels:
Assay in all cases: peptide-array ELISA (CYS.S) [Continued]
[1] = target: T1, 2…2RPGWY2A
T1 sequence (peptide, 2 = Cys(ACM)): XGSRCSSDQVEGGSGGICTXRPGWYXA

[2] = target: T2, 2…
T2 sequence (peptide, 2 = Cys(ACM)): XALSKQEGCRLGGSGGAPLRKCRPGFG

[3] = target: T3, EGCRL2…
T3 sequence (peptide, 2 = Cys(ACM)): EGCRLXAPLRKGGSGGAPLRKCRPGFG

[4] = target: T4, EGCRL2…; remark: listed apart in the source
T4 sequence (peptide, 2 = Cys(ACM)): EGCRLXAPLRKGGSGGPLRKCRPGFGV

[5] = target: T5, EQNRI2…
T5 sequence (peptide, 2 = Cys(ACM)): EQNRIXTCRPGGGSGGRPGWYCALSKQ

[6] = target: T6, KQEGCRL2APLGGSGG2…
T6 sequence (peptide, 2 = Cys(ACM)): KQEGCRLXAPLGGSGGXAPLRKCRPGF

[7] = target: T7, KQEGCRL2…
T7 sequence (peptide, 2 = Cys(ACM)): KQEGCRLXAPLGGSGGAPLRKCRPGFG

[8] = target: T8, KQEGCRL2…; remark: listed apart in the source
T8 sequence (peptide, 2 = Cys(ACM)): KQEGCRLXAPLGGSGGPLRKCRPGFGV

[9] = target: T9, LS2…2RPGWY2
T9 sequence (peptide, 2 = Cys(ACM)): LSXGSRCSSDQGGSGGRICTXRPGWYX

[10] = target: T10, LS2…2RPGWY
T10 sequence (peptide, 2 = Cys(ACM)): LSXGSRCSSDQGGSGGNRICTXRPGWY

[11] = target: T11, NRI2…
T11 sequence (peptide, 2 = Cys(ACM)): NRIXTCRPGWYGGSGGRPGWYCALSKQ

[12] = target: T12, PE2LS2…2RPGWY2AL
T12 sequence (peptide, 2 = Cys(ACM)): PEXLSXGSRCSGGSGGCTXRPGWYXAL

[13] = target: T13, PE2LS2…2RPGWY2A
T13 sequence (peptide, 2 = Cys(ACM)): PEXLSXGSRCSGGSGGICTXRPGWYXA

[14] = target: T14, PE2LS2…2RPGWY2
T14 sequence (peptide, 2 = Cys(ACM)): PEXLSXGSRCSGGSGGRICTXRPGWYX

[15] = target: T15, QEGCRL2…2…
T15 sequence (peptide, 2 = Cys(ACM)): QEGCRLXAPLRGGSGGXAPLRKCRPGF

[16] = target: T16, QNRI2…
T16 sequence (peptide, 2 = Cys(ACM)): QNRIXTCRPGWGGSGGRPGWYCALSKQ

[17] = target: T17, REQNRI2…
T17 sequence (peptide, 2 = Cys(ACM)): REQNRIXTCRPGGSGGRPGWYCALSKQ

[18] = target: T18, S2…2RPGWY2
T18 sequence (peptide, 2 = Cys(ACM)): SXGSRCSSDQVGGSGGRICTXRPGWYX

[19] = target: T19, S2…2RPGWY
T19 sequence (peptide, 2 = Cys(ACM)): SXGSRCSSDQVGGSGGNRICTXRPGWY

[20] = target: T20, SKQEGCRL2…
T20 sequence (peptide, 2 = Cys(ACM)): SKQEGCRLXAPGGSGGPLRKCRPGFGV

[21] = target: T21, TREQNRI2…
T21 sequence (peptide, 2 = Cys(ACM)): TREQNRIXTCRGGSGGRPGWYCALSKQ

[22] = target: T22, VPE2LS2…2RPGWY2AL
T22 sequence (peptide, 2 = Cys(ACM)): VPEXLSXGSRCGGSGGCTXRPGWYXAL

[23] = target: T23, WY2…2…
T23 sequence (peptide, 2 = Cys(ACM)): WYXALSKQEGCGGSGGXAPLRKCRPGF

[24] = target: T24, WY2…
T24 sequence (peptide, 2 = Cys(ACM)): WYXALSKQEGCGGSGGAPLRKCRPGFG

[25] = target: T25, WY2…; remark: listed apart in the source
T25 sequence (peptide, 2 = Cys(ACM)): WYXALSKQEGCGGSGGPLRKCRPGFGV

[26] = target: T26, Y2…2…
T26 sequence (peptide, 2 = Cys(ACM)): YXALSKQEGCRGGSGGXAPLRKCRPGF

[27] = target: T27, Y2…
T27 sequence (peptide, 2 = Cys(ACM)): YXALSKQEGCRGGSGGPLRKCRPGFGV

[28] = target: T28, Y2…; remark: listed apart in the source
T28 sequence (peptide, 2 = Cys(ACM)): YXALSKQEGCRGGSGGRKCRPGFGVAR

[29] = target: T29, …2GGSGGCT2RPGWY2AL
T29 sequence (peptide, 2 = Cys(ACM)): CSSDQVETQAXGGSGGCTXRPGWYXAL

[30] = target: T30, …2RPGWY2AL
T30 sequence (peptide, 2 = Cys(ACM)): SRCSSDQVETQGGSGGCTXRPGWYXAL

[31] = target: T31, …2RPGWY2A
T31 sequence (peptide, 2 = Cys(ACM)): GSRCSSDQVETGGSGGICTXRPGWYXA

[32] = target: T32, …2RPGWY2A; remark: listed apart in the source
T32 sequence (peptide, 2 = Cys(ACM)): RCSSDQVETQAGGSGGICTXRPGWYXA

[33] = target: T33, …2RPGWY2
T33 sequence (peptide, 2 = Cys(ACM)): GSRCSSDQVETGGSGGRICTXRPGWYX

[34] = target: T34, …2RPGWY2; remark: listed apart in the source
T34 sequence (peptide, 2 = Cys(ACM)): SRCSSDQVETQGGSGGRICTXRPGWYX

[35] = target: T35, …2RPGWY
T35 sequence (peptide, 2 = Cys(ACM)): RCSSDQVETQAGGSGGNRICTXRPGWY

[36] = target: T36, …2RPGWY; remark: listed apart in the source
T36 sequence (peptide, 2 = Cys(ACM)): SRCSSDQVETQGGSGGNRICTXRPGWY

[37] = target: T37, …2…2RPGWY2
T37 sequence (peptide, 2 = Cys(ACM)): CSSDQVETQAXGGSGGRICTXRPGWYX

[38] = target: T38, …2…
T38 sequence (peptide, 2 = Cys(ACM)): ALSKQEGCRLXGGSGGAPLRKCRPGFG

[39] = target: T39, …2…; remark: listed apart in the source
T39 sequence (peptide, 2 = Cys(ACM)): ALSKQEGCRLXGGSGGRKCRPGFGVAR

[40] = target: T40, …2…; remark: listed apart in the source
T40 sequence (peptide, 2 = Cys(ACM)): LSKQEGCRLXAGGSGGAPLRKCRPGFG

B1: antagonistic TNFR2 antibody TNFRAB1 (antibody, V domains shown)
VH: EVQLQESGGGLVKPGGSLKLSCAASGFTFSSYVMSWVRQTPEKRLEWVATISSGGSYTYYPDSVKGRFTISRDNAKNTLYLQMSSLRSEDTAMYYCARQRVDGYSSYWYFDVWGAGTAVTVSS
VL: DIVLTQSPAIMSASPGEKVTITCSASSSVYYMYWFQQKPGTSPKLWIYSTSNLASGVPVRFSGSGSGTSYSLTISRMEAEDAATYYCQQRRNYPYTFGGGTKLEIKR
Raw luminescence data [1]: 402
Raw luminescence data [2]: 418
Raw luminescence data [3]: 312
Raw luminescence data [4]: 450
Raw luminescence data [5]: 263
Raw luminescence data [6]: 528
Raw luminescence data [7]: 242
Raw luminescence data [8]: 457
Raw luminescence data [9]: 546
Raw luminescence data [10]: 822
Raw luminescence data [11]: 426
Raw luminescence data [12]: 697
Raw luminescence data [13]: 542
Raw luminescence data [14]: 585
Raw luminescence data [15]: 570
Raw luminescence data [16]: 240
Raw luminescence data [17]: 228
Raw luminescence data [18]: 465
Raw luminescence data [19]: 666
Raw luminescence data [20]: 369
Raw luminescence data [21]: 188
Raw luminescence data [22]: 483
Raw luminescence data [23]: 327
Raw luminescence data [24]: 534
Raw luminescence data [25]: 341
Raw luminescence data [26]: 308
Raw luminescence data [27]: 381
Raw luminescence data [28]: 463
Raw luminescence data [29]: 265
Raw luminescence data [30]: 391
Raw luminescence data [31]: 403
Raw luminescence data [32]: 372
Raw luminescence data [33]: 594
Raw luminescence data [34]: 568
Raw luminescence data [35]: 247
Raw luminescence data [36]: 482
Raw luminescence data [37]: 597
Raw luminescence data [38]: 321
Raw luminescence data [39]: 455
Raw luminescence data [40]: 253
